Data: patent publication US8624002B2, “Prostaglandin E2 binding proteins and uses thereof” (AbbVie, Inc., priority 2008, dated 2014)

Experiments:
[1] = ^3H-PGE2 ELISA (binding)
Protocol: Alternatively, prostaglandin binding was determined using a ^3H-PGE2 ELISA. Plates were coated at 50 μL/well with 5 μg/ml of goat anti-human IgG (Fc) (Thermo Scientific # 31170, Hudson, N.H.) or goat anti-mouse IgG (Fc) (Thermo Scientific # 31125, Hudson, N.H.) in PBS and incubated overnight at 4° C. The following day, plates were flicked and blotted dry. Plates were blocked with 200 μL/well of Superblock (Thermo Scientific # 37515, Hudson, N.H.) for 1 hour at room temperature. Plates were flicked and blotted dry. Monoclonal antibodies were diluted to 0.04 μg/ml in phosphate buffer solution with Tween 20 (PBST) (Abbott Bioresearch Center, Worcester, Mass.) and 10% Superblock and 50 μL of each antibody was added to each well of the pre-blocked ELISA plate at 2 ng/well and incubated for 1 hour at room temperature. Wells were washed 3 times with PBS+0.1% Tween-20. A serial 3-fold titration of ^3H-PGE2 (Perkin Elmer # NET-428, Waltham, Mass.) was prepared in PBST/10% Superblock. Fifty microliters of the ^3H-PGE2 solution was added to each well of the plate and incubated for 1 hour at room temperature. […] Plates were read using a TopCount reader (Perkin Elmer, Waltham, Mass.) with a 5 minute count delay. An EC50 number was determined using GraphPad Prism 5 (GraphPad Software, La Jolla, Calif.).

[2] = Biotin-PGE2 ELISA (PGE2-biotinamide binding to captured IgG)
Protocol: Enzyme linked immunosorbent assays to screen for antibodies that bind prostaglandin E2 were performed according to at least one of the two following methods.
ELISA plates (Costar 3369, Corning, N.Y.) were coated with 50 μl of anti-host Fc IgG (Sigma, St. Louis, Mo.) at 2 μg/ml in PBS (Invitrogen Carlsbad, Calif.). Following an overnight incubation at 4° C., washed with PBS and the plate was blocked with 200 μl Superblock (Pierce #37535, Rockford, Ill.). The IgG containing samples were diluted to 1 μg/ml in Assay Buffer (10% Superblock in PBS containing 0.05% Surfactamps (Pierce #37535, Rockford, Ill.) and 50 μl/well added to each well and incubated for 1 hour at room temperature. Plates were washed four times with Tween-Tris Buffered Solution (TTBS). […] The titration curve samples were added to each IgG sample at 50 μl/well and incubated for 1 hour at room temperature. The plates were washed as previously described and 50 μl of 1:5000 dilution of streptavidin polyhrp40 (Fitzgerald Industries, Concord, Mass.) in Assay Buffer was added to each well and incubated for 45 minutes at room temperature. A final wash step was performed and the plates were developed using a single step TMB system (Sigma #T8665, St. Louis, Mo.) and 100 μl/well 2N H2SO4. Plates were read at 450 nm on a Molecular Devices Spectramax plate reader (Sunnyvale, Calif.). EC50 was determined using GraphPad Prism 5 (GraphPad Software, La Jolla, Calif.).

[3] = system: mouse collagen-induced arthritis; experiment: Collagen-induced arthritis; type: in vivo, DBA/J mice; conditions: 8 mg/kg, 2×/week, i.p.
Protocol: Type II bovine collagen (lyophilized) was obtained from the University of Utah (Salt Lake City, Utah). Male DBA/J mice (8-10-week-old, Jackson Laboratories, Bar Harbor, Me.) were immunized intradermally at the base of the tail with 100 μL of emulsion containing 100 μg of type II bovine collagen dissolved in 0.1 N of acetic acid and 100 μg of heat-inactivated Mycobacterium tuberculosis H37Ra (Complete Freund's Adjuvant, Difco, Laurence, Kans.). Twenty-one days after immunization with collagen, mice were boosted IP with 1 mg of Zymosan A (Sigma, St. Louis, Mo.). Following the boost, mice were monitored daily for arthritis. Each paw was scored by the following criteria: 0=normal; 1=swelling in one site, foot, or ankle; 2=swelling in foot and ankle; and 3=ankylosis. Scores were summed for each animal, and total average of all animals in each group was expressed as MAS. In addition to clinical scores, mice were also evaluated for paw-edema using Dyer spring calipers model #310-119. […]
Micro-computed tomography was performed on a Scanco μCT-40 unit (Scanco Medical AG) at 60 kVp at 160 μA. The hind paws (stored in 70% ethanol) were secured in imaging tubes and the tarsal bone volume was measured for a 1.8-mm section of the mouse ankle from the base of the tibia to the tarsal/metatarsal joint at a resolution of 18 μm. The raw micro-computed tomography image was then analyzed using the Scanco AG μCT Evaluation program.
For histopathology analysis, formalin-fixed paws were sectioned and stained with Gills 3 hematoxylin (Richard-Allan Scientific, Kalamazoo, Mich.) and eosin with phloxine (Newcomer Supply, Middleton, Mich.). Severity of disease was evaluated histologically using the following criteria: 0=normal; 1=minimal change; 2=mild change; 3=moderate change; and 4=severe change. Scores were summed for each animal, and the total was expressed as an average of all animals in each group.
The therapeutic effects of anti-PGE2 alone was evaluated in mouse (male DBA/1J) collagen-induced arthritis, a standard preclinical model for human rheumatoid arthritis. […]

B1: 2B5-8.0: recombinant anti-PGE2 antibody from solved 2B5 sequence; VH SEQ ID NO 42, VL SEQ ID NO 43 (antibody, V domains shown)
VH: QVQLQQSGPELVRPGSSVKISCKASGYTFTKYWLGWVKQRPGHGLEWIGDIYPGYDYTHYNEKFKDKATLTVDTSSSTAYMQLSSLTSEDSAIYYCARSDGSSTYWGQGTLVTVSA
VL: DVLMTQTPLSLPVSLGDQASISCTSSQNIVHSNGNTYLEWYLQRPGQSPKLLIYKVSNRFSGVPDRFSGSGSGTVFTLKISRVEAEDLGVYYCFQVSHVPYTFGGGTKLEIKR
With B1 the EC50 [1] was 0.253 nM, the EC50 [2] was 1.03 nM and the “ability to bind PGE2 in ELISA” value [2] was “potently bound to PGE2”. The “Paw Swelling (AUC) (mm # days)” value [3] was 8.4 ± 1.3 mm # days, the “Bone Volume (mm^3)” value ([3]; micro CT tarsal bone volume) was 1.6 ± 0.1 mm^3 and the “MAS (AUC) (Score # days)” value ([3]; treatment after disease onset) was 57.4 ± 6.7 Score # days.
